# Data published in the RNAGym collection of RNA variant scans (doi:10.1021/acssynbio.7b00057).
# B1: Pistol ribozyme (parent)
# chain: GGGUCGUUGUUCCAUAAUCGCGUGGAUAUGGCACGCAAGUUUCUACCGGGCACCGUAAAUGUCCGACUGGAGCCGUUCGGGCGGCUAUAAACAGACCUCAGGCCCGAAGCGUGGCGGCACCUGCCGCCGGUGGUAAAAAAGAUCGGAAGAGCACACGUCU
# Variants of: B1
# Experiment: aptazyme ON/OFF ratio, guanine; higher = stronger switching; co-transcriptional cleavage with and without guanine
row,Variant,aptazyme ON/OFF ratio
1,U8G U10G U11G C13U,1.19
2,U8G U10G U11G C13G,1.25
3,U8G U10G U11G C13A,1.21
4,U8G U10C C12A C13U,1.14
5,U8G U10C C12A C13A,1.09
6,U8G U10C C12A C13G,1.07
7,U8G U10C U11G C12A,1.35
8,U8G U10C U11G C12U,1.33
9,U8G U10C U11G C12G,1.23
10,G9A C12A C13G,1.12
11,G9A C12A C13A,1.45
12,G9A C12A C13U,1.38
13,U8G U10A U11G C12A C13U,1.12
14,U8G U10A U11G C12A C13A,1.11
15,U8G U10A U11G C12A C13G,1.12
16,U8G U10A U11C C12G,1.21
17,U8G U10A U11C C12U,1.03
18,U8G U10A U11C C12A,1.18
19,U8G U11G C12G C13A,1.08
20,U8G U11G C12G C13U,1.2
21,U8G U11G C12G C13G,1.08

row,Variant,aptazyme ON/OFF ratio
1,G9A U10A U11G C12A C13A,1.07
2,U8G G9U U11C C12U C13U,1.03
3,U8G G9U U11C C12U C13G,1.08
4,U8G G9U U11C C12U C13A,1.06
5,G9A U10A,3.05
6,G9A U10A U11C C12U C13G,1.36
7,G9A U10A U11C C12U C13U,1.26
8,G9A U10A U11C C12U C13A,1.34
9,U8G U10C U11G C12U C13G,1.15
10,U8G U10C U11G C12U C13U,1.13
11,U8G U10C U11G C12U C13A,1.14
12,U8G U10G U11C C12G C13G,1.1
13,U8G U10G U11C C12G C13A,1.11
14,U8G U10G U11C C12G C13U,1.13
15,U8G U10A C12G C13A,1.16
16,U8G U10A C12G C13G,1.14
17,U8G U10A C12G C13U,1.28
18,U8G U10G C12U,1.15
19,U8G U10G C12G,1.3
20,U8G U10G C12A,1.39
21,U8G G9U U11C C12G C13U,1.13

row,Variant,aptazyme ON/OFF ratio
1,U8G G9U U11C C12G C13G,1.06
2,U8G G9U U11C C12G C13A,1.04
3,U8G U10C U11A C12U C13G,1.14
4,U8G U10C U11A C12U C13A,1.14
5,U8G U10C U11A C12U C13U,1.22
6,U8G U10C U11A C13A,1.15
7,U8G U10C U11A C13G,1.05
8,U8G U10C U11A C13U,1.22
9,U8G U10C U11C C12G C13G,1.09
10,U8G U10C U11C C12G C13U,1.15
11,U8G U10C U11C C12G C13A,1.1
12,U8G U10A U11A C12U C13G,1.17
13,U8G U10A U11A C12U C13A,1.3
14,U8G U10A U11A C12U C13U,1.14
15,U8G G9U U11G C12G C13A,1.21
16,U8G G9U U11G C12G C13U,1.22
17,U8G G9U U11G C12G C13G,1.36
18,U8G U11C C13G,1.17
19,U8G U11C C13U,1.37
20,U8G U11C C13A,1.19
21,G9A U10A U11C C12U,1.13

row,Variant,aptazyme ON/OFF ratio
1,G9A U10A U11C C12G,1.32
2,G9A U10A U11C C12A,1.65
3,U8G U10C C13A,1.05
4,U8G U10C C13U,1.15
5,U8G U10C C13G,1.04
6,G9A U10A C12A C13U,1.36
7,G9A U10A C12A C13G,1.06
8,G9A U10A C12A C13A,1.61
9,U8G U10C C12U,3.67
10,U8G U10C C12G,1.49
11,U8G U10C C12A,1.34
12,G9A U10A U11A C13U,1.46
13,G9A U10A U11A C13G,1.05
14,G9A U10A U11A C13A,1.11
15,U8G U10G C13G,1.23
16,U8G U10G C13A,1.15
17,U8G U10G C13U,1.11
18,G9A U10A U11C,1.08
19,G9A U10A U11G,2.38
20,G9A U10A U11A,2.7
